Molecular target: LTβR (whole, in cells) (human) (UniProt P36941)
Assay: cell-based or functional assay

“recombinant soluble LTα1β2 (from UniProt P01374 35-205; Q06643 49-244) (ligand)” showed an IC50 for inhibition of HCMV pp28 expression (western blot) of 1 nM and an inhibition of the cytopathic effect of HCMV, against LTα and LIGHT of 10 fold.

From US20110171242A1
